Tested on: PSA peptide M(GVGVP)60GDGQSSIYSQTEEQQDDEEG

Substance: Prostate Specific Antigen (PSA), active
- optical density of 100 µM PSA peptide before and after 2 h with 20 ng/mL active PSA at 37 C: a distinct difference in the presence of active PSA, with an increase in optical density of the solution above the transition temperature after incubation with enzyme

Source: patent US20160348147
